Among the data in patent US20130065819A1 are decrease in Tat driven transactivation of the HIV LTR/TAR luciferase reporter in HeLa cells values, retold here.

The test deals with HIV Tat transcription factor (HIV). Put plainly: cell-based or functional assay.

Consider “human TOE1 (Target of Egr1) (from UniProt Q96GM8 1-510)”, for which the decrease in Tat driven transactivation of the HIV LTR/TAR luciferase reporter in HeLa cells lay in the range of 50 to 80%.
